B1: Nse5-LexA (wild type) [S. cerevisiae] / Nse6-AD [S. cerevisiae] (parent complex)
chain 1: MDGALINSVLYVSPRNGAHYFVELTEKHLLAFEMLNSMCLLENYDHVLLFLECQFGKSHNLAVIPFDIILVLFTLSTLSEYYKEPILRANDPYNTSRETLSRRALKLLQKYLAILKEFDSEQYNLYDLELLRCQFFLAIDTLTPKKQKWGFDRFRRTKSESGVTYRQNASVDPELDQAKTFKNPYRSYISCLEQRNTILGNRLLNLKLNEPGEFINMILWTLSNSLQESTPLFLSSHEIWMPLLEILIDLFSCRQDYFIQHEVAQNVSKSLFVQRLSESPLAVFFESLNTRNFANRFSEYVFLNCDYKLPSDNYATPVHPVYNGENTIVDTYIPTIKCSPLYKSQKSLALRRKLIGSCFKLLLRVPDGHRLITPRIVADDVIQGISRTLASFNDILQFKKFFMTENLSQESYFIPLLAEGTLSEILKDTQECVVILTLVENLSDGVSFCNEVIGLVKSKCFAFTEQCSQASYEEAVLNIEKCDVCLLVLLRYLLHLIGTEAILDAKEQLEMLHAIEKNDSGRRQWAKALNLGNDPPLLYPIVSQMFGVHDKSVIIE
chain 2: MGSVNSSPNEEFETVPDSQISGFDSPLIPTSVGSYFRDDDDDEKVHPNFISDPENDSLNSDEEFSSLENSDLNLSGAKAESGDDFDPILKRTIISKRKAPSNNEDEEIVKTPRKLVNYVPLKIFNLGDSFDDTITTTVAKLQDLKKEILDSPRSNKSIVITSNTVAKSELQKSIKFSGSIPEIYLDVVTKETISDKYKDWHFISKNCHYEQLMDLEMKDTAYSFLFGSSRSQGKVPEFVHLKCPSITNLLVLFGVNQEKCNSLKINYEKKENSRYDNLCTIFPVNKMLKFLMYFYSDDDNDDVREFFLKAFICLILDRKVFNAMESDHRLCFKVLELFNEAHFINSYFEIVDKNDFFLHYRLLQIFPHLQSALLRRRFSEKQGRTETIQQNIIKEFNEFFDCKNYKNLLYFILTMYGSKFIPFGPKCQVTEYFKDCILDISNETTNDVEISILKGILNLFSKIR
B2: Nse5-LexA (wild type) [S. cerevisiae] / Smt3-AD [S. cerevisiae] (parent complex)
chain 1: B1 chain 1
chain 2: MSDSEVNQEAKPEVKPEVKPETHINLKVSDGSSEIFFKIKKTTPLRRLMEAFAKRQGKEMDSLRFLYDGIRIQADQTPEDLDMEDNDIIEAHREQIGGATY

Variants of: B1
Experiment: yeast two-hybrid (β-galactosidase); gal (induced) bar; parent: 2.45e+03

Variant | response
chain 1 H319Y | 2070 β-galactosidase activity units
chain 1 Y123H | 2190 β-galactosidase activity units
chain 1 Y111H | 2170 β-galactosidase activity units
chain 1 N183D | 2140 β-galactosidase activity units

Variants of: B1
Experiment: yeast two-hybrid (β-galactosidase); gal (induced) bar; vector bait control 2.8; parent: 2.45e+03

Variant | response
chain 1 L70A | 2130 β-galactosidase activity units
chain 1 L247A | 2570 β-galactosidase activity units

Variants of: B2
Experiment: yeast two-hybrid (β-galactosidase); gal (induced) bar; vector bait control 7.3; parent: 1.95e+03

Variant | response
chain 1 L70A | 7.8 β-galactosidase activity units
chain 1 L70A, chain 1 L247A | 6.6 β-galactosidase activity units
chain 1 L247A | 7.4 β-galactosidase activity units
